The source of these data is US6670167.

In one data set the target is T1, Biotin-Syntide-2.
T1 chain: KAGAGPLARTLSVAGLPGK

Data set [1] has as its target T2, N-terminus acetylated Syntide-2.
T2 chain: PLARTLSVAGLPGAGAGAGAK

Data set [2] addresses T3, Syntide-2, synthetic substrate peptide PLARTLSVAGLPGKK
T3 chain: PLARTLSVAGLPGKK

B1: Kinase Domain Chk1 (1-289), C-terminally 6xHis-tagged (protein)
chain: MAVPFVEDWDLVGTLGEGAYGEVQLAVNRVTEEAVAVKIVDMKRAVDCPENIKKEICINKMLNHENVVKFYGHRREGNIQYLFLEYCSGGELFDRIEPDIGMPEPDAQRFFHQLMAGVVYLHGIGITHRDIKPENLLLDERDNLKISDFGLATVFRYNNRERLLNKMCGTLPYVAPELLKRREFHAEPVDVWSCGIVLTAMLAGELPWDQPSDSCQEYSDWKEKKTYLNPWKKIDSAPLALLHKILVENPSARITIPDIKKDRWYNKPLKKGAKRPRVTSGGVSESPSGHHHHHH
Consider B1, for which the Activity is 67% in the data set with Biotin-Syntide-2 and 72% in data set [1]. This protein also came in with a Rate/min (/min (at 7.3 nM enzyme)) in data set [2] of 0.02.

B2: Full Length Chk1 (amino acids 1-476 of SEQ ID NO. 2), preparation HA2-013 (protein)
chain: MAVPFVEDWDLVGTLGEGAYGEVQLAVNRVTEEAVAVKIVDMKRAVDCPENIKKEICINKMLNHENVVKFYGHRREGNIQYLFLEYCSGGELFDRIEPDIGMPEPDAQRFFHQLMAGVVYLHGIGITHRDIKPENLLLDERDNLKISDFGLATVFRYNNRERLLNKMCGTLPYVAPELLKRREFHAEPVDVWSCGIVLTAMLAGELPWDQPSDSCQEYSDWKEKKTYLNPWKKIDSAPLALLHKILVENPSARITIPDIKKDRWYNKPLKKGAKRPRVTSGGVSESPSGFSKHIQSNLDFSPVNSASSEENVKYSSSQPEPRTGLSLWDTSPSYIDKLVQGISFSQPTCPDHMLLNSGLLGTPGSSQNPWQRLVKRMTRFFTKLDADKSYQCLKETCEKLQYQWKKSCMNQVTISTTDRRNNKLIFKVNLLEMDDKILVDFRLSKGDGLEFKRHFLKIKGKLIDIVSSQKVWLPATHHHHHH
On to B2, for which, in data set [2], the Activity is given as 1 (control) and the Rate/min (/min (at 75 nM enzyme)) was 0.019.
